Assay results: patent US20100316665A1

T1: OmpC porin purified from Salmonella typhi (Salmonella enterica subsp. enterica serovar Typhi), A0A0H3
T1 chain: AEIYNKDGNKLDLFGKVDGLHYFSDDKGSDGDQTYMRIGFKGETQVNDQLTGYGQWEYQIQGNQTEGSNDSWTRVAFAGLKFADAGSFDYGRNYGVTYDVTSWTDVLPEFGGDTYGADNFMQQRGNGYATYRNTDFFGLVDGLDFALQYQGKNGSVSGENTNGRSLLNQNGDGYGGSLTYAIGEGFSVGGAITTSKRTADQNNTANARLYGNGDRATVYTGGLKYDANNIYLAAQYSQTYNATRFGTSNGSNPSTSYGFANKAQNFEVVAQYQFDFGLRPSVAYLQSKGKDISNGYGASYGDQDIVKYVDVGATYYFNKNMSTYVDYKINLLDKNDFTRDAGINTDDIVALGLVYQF

T2: OmpF porin purified from Salmonella typhi (Salmonella enterica subsp. enterica serovar Typhi), Q56113
T2 chain: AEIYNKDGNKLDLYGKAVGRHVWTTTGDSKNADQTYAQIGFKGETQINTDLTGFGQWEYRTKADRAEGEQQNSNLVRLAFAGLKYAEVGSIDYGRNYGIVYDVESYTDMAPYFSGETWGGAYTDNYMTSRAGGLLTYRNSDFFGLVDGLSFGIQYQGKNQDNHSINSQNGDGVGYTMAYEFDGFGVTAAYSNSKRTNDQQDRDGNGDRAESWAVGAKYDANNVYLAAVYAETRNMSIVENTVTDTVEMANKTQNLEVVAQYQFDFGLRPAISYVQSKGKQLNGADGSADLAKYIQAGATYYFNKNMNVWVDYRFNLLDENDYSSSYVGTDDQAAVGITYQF


Key:
[1] = molecular target: T1, OmpC porin purified from Salmonella …; assay: phage display panning on OmpC, frequency of occurrence among sequenced binders
[2] = molecular target: T2, OmpF porin purified from Salmonella …; assay: phage display panning on OmpF, frequency of occurrence among sequenced binders

Binder | Frequency (fraction of sequenced phage) [1] | Frequency (fraction of sequenced phage) [2]
SLSLIQT (modifications not checked) [affinity peptide SLSLIQT] | 0.125 | 
EAKGLIR (modifications not checked) [affinity peptide EAKGLIR] | 0.75 | 
TATYLLD (modifications not checked) [affinity peptide TATYLLD] | 0.125 | 
FHENWPS (modifications not checked) [affinity peptide FHENWPS] |  | 0.6
FHEFWPT (modifications not checked) [affinity peptide FHEFWPT] |  | 0.4
